Results reported in patent publication US20250074972A1, “ANTIBODIES AND METHODS FOR GENERATING THE SAME” (priority 2021, published 2025).
“Also recorded” adds a separate entry of the source.

B1: 1B11 scAb: anti-Pga31 single chain antibody from naive human library; amino acid sequence SEQ ID NO: 2 (protein)
scFv: EVQLLESGGGVVQPGRSLRLSCAASGFTFSSYGMHWVRQAPGKGLEWVAVISYDGSNKYYADSVKGRFTISRDNSKNTLYLQMNSLRAEDTAVYYCARDRSGWGSLDYWGQGTLVTVSSLEGGGGSGGGGSGGGASDIVMTQSPDSLAVSLGERATINCKSSQNVLYSSNNKNYLAWYQQKSGQPPKLLIYWASTRESGVPDRFSGSGSGTDFTLTISSLQAEDVAVYYCQQYYSTPRTFGQGTKVEIK
modifications: 1B11 Amino Acid Sequence

Assays:
[1] = system: C. albicans (SC5314); experiment: Galleria mellonella infection model, C. albicans; type: in vivo, Candida albicans; conditions: for survival of larvae: Galleria mellonella infected with 5×10^5 C. albicans, monitored 60 h, Mantel-Cox p<0.0001
Method: (§1) Galleria mellonella is a reliable infection model to test and compare antibody efficacy by monitoring the survival of the larvae. Ten Galleria mellonella larvae (Livefoods Direct Ltd, Sheffield, UK) with bodyweights of =250-300 mg were used for each test group and standardised inoculum of 5×10^5 C. albicans and 5×10^7 C. auris yeast cells/larvae were injected using Hamilton syringe (Cole-Parmer, UK, washed twice with 100% ethanol and sterile dH2O between every 5 injections) via the last pro-leg. Two control groups, one with no injection and the second with PBS injection were also set up. After injection, larvae were incubated for 48-60 h at 37° C. Survival was monitored first after 24 h and then every 6 h. A Kaplan-Meier plot was generated to assess the survival of larvae infected with C. albicans and C. auris, monitoring the survival rate for 60 h (FIG. 8).
(§2) In addition, the fungal burden of various test groups was calculated by measuring the number of colony forming units (CFU) as an indicator of fungal growth within the larvae and early fungicidal/fungistatic activity of the antibody. […] (FIG. 9A).

[2] = system: Candida albicans strain SC5314; experiment: Mouse model of disseminated Candidiasis, Study 1; type: in vivo; conditions: caspofungin 1 mg/kg at 24 h post-infection; p=0.004
Method: In study 1, the protective effect of mAb 1B11 as a prophylactic agent with single dosing before and after the administration of fungal inoculum was investigated. Female BALB/c mice, 7-9 weeks old were purchased from Envigo Ltd. and randomly assigned to groups of 6 for treatment and control. The Candida albicans inoculum was prepared by growing strain SC5314 in NGY medium for 16 h, shaking at 30° C. Cells were harvested and washed with saline, then counted and resuspended in saline to provide an inoculum of approx. 2×10^4 CFU/g mouse body weight in 100 μl. Mice were infected intravenously.
Actual inoculum level was determined by plating dilutions of the inoculum on Sabouraud dextrose agar and incubating overnight at 30° C. It was determined to be 2.2×10^4 CFU/g mouse body weight.
Animals were allocated into four main groups as explained below. The treatment dose of 1B11 mAb was 15 mg/kg per mouse. All treatments were administered intraperitoneally (IP) in 150 μl saline. […]
Mice were monitored and weighed every day and were culled on day 4 post-infection and the kidneys removed aseptically. […] Burdens were determined by plating out kidney homogenate and counting colonies after 48 h growth at 30° C. […]

[3] = system: Candida albicans strain SC5314; experiment: Mouse model of disseminated Candidiasis, Study 3; type: in vivo; conditions: 1 mg/kg at 24 h and 72 h post-infection; day 7
Method: In study 3, the protective effect of mAb 1B11 as a prophylactic agent with single dosing 3 hours before infection followed by two dosing 24 h and 72 h post infection was investigated.
In addition, a treatment only arm with the administration of 1B11 mAb 24 h and 72 h post infection was also included.
Animals were allocated into four main groups as explained below. The treatment dose of 1B11 mAb was 12.5 mg/kg per mouse. All treatments were administered intraperitoneally (IP) in 200 μl saline.
The study plan is shown in FIG. 19 and is as follows: • Group 1—Pre-treatment with 1B11 mAb at 3 h before infection, followed by treatment at 24 h and 72 h post-infection. • Group 2—Injected with saline at 3 h before infection, treatment with 1B11 at 24 h and 72 h post-infection. • Group 3—Saline injections at all three time points • Group 4—caspofungin treatment (1 mg/kg) at 24 h and 72 h post-infection
Mice were monitored and weighed every day and were culled on day 7 post-infection and the kidneys removed aseptically. Kidneys were split […], with one half of each kidney used to determine burdens, one half frozen on OCT and one half fixed in formalin at 4° C. Burdens were determined by plating out kidney homogenate and counting colonies after 48 h growth at 30° C. Statistical comparisons were carried out using IBM SPSS version 24. […]

[4] = system: C. albicans (SC3514); experiment: Biofilm formation assay (crystal violet), C. albicans; type: cell-based, Candida albicans
Method: (§3) The ability of 1B11 scAb in preventing the formation of biofilm in C. albicans ([…]) and C. auris (1716) was tested. The growth medium used were RPMI and 20% Foetal Calf Serum (FCS) and the assay was carried out in 96 well microtitre plates. Test antibody 1B11 scAb at a starting concentration of 160 μg/ml was double diluted down the plate and the top row served as positive control with cells only. The final number of cells added to each well was kept constant at 1×10^5/ml and the plate was incubated at 37° C. for 24 h. Following incubation, the biofilm plate was gently washed two times with PBS to remove non-adhering cells and allowed to dry at room temperature overnight. The biofilm was stained with 100 μl 0.05% crystal violet for 20 min followed by washing with Millipore Q water and 200 ul of 100% ethanol. Contents of each well were transferred to a new plate and absorbance was read at 570 nm wavelength.

[5] = system: cell lysates of pga314 mutant strain; experiment: Pga31 scAbs binding ELISA on cell lysates of pga31 mutant strain; design: species or system Candida albicans; conditions: with or without 0.032 μg/ml caspofungin
Method: (§4) The reaction was stopped using 1 M H2SO4 and the absorbance values measured using a microplate reader at absorbance 450 nm. For total cell lysate ELISA, C. albicans WT and pga31 single mutant strain overnight cultures were inoculated into fresh YPD at OD600 nm of 0.1-0.2, grown for 3-4 h at 30° C. until OD of 0.5-0.6 was reached and then treated with caspofungin (0.032 μg/ml) for 90 min. After 90 min growth cells were harvested, centrifuged for 5 min at 4000 rpm and washed and cell lysate was prepared. This was used to coat ELISA plates at 37° C. for 1 h, plates were washed and blocked with 2% MPBS as before, followed by the two-fold serial dilution of scAb samples.

[6] = system: C. auris (1716); experiment: Galleria mellonella infection model, C. auris; type: in vivo, Candida auris; conditions: for survival of larvae: Galleria mellonella infected with 5×10^7 C. auris, monitored 60 h, versus non-treated, Mantel-Cox p<0.0001
Method: as §1, §2

[7] = system: C. auris (1716); experiment: Biofilm formation assay (crystal violet), C. auris; type: cell-based, Candida auris
Method: as §3

[8] = system: total cell lysates of WT C. albicans (SC5314); experiment: Pga31 scAbs binding ELISA on total cell lysates of WT C. albicans treated with or without caspofungin; design: species or system Candida albicans; conditions: absorbance 450 nm, cells treated or untreated with 0.032 μg/ml caspofungin
Method: as §4

[9] = at higher concentrations (start 160 μg/ml, double diluted), 24 h incubation

Row | Molecule | survival of larvae [1] | kidney organ burdens compared to saline treated mice [2] | kidney burdens, caspofungin group compared to saline treated group [3] | C. albicans growth under biofilm-inducing conditions ([4]; 24 h, especially in 20% foetal calf serum) | biofilm biomass (crystal violet) compared to the control ([4]; RPMI conditions, T test, p<0.0001) | biofilm formation [4, 9] | fungal burden (colony forming units) in larvae ([1]; versus non-treatment group, statistically significant in 24 h group) | scAb binding to mutant strain lysate [5] | fungal burden (colony forming units) in larvae ([6]; 4 h and 24 h incubation, versus non-treatment group) | survival of larvae [6] | survival of larvae ([6]; listed as anti-Pga31 antibody) | C. auris growth under biofilm-inducing conditions ([7]; 24 h, RPMI or 20% FCS) | biofilm formation [7, 9] | biofilm biomass (crystal violet) compared to the control ([7]; both RPMI and 20% FCS conditions, T-test, p<0.0001, p<0.0004) | scAb binding to lysates of caspofungin treated versus untreated cells [8]
1 | CC[C@H](C)C[C@H](C)CCCCCCCCC(=O)N[C@H]1C[C@@H](O)[C@@H](NCCN)NC(=O)[C@@H]2[C@@H](O)CCN2C(=O)[C@H]([C@H](O)CCN)NC(=O)[C@H]([C@H](O)[C@@H](O)c2ccc(O)cc2)NC(=O)[C@@H]2C[C@@H](O)CN2C(=O)[C@H]([C@@H](C)O)NC1=O [caspofungin, reference compound] | significant survival percentage; also recorded: only had marginal effect | significant decrease | highly significant difference |  |  |  |  |  |  |  |  |  |  |  | 
2 | B1 | significant survival percentage |  |  | significantly inhibited | significantly different | able to inhibit biofilm formation | lower level of growth inhibition | lack of scAb binding | inhibited; also recorded: notable inhibition of growth | significant survival percentage | survived significantly more | did not significantly inhibit C. auris growth under biofilm-inducing conditions except at the highest concentration tested | able to inhibit biofilm formation | significantly different | increase in scAb binding
